Data taken from patent US7351689.

Molecular target: human IL-28 receptor on transfected 293 HEK cells (IL-28 receptor alpha subunit with endogenous CRF2-4) (human)
Assay: cell-based or functional assay

Sequence of human IL-28 receptor on transfected 293 HEK cells (IL-28 receptor alpha subunit with endogenous CRF2-4) (human) (Q8IU57 21-520): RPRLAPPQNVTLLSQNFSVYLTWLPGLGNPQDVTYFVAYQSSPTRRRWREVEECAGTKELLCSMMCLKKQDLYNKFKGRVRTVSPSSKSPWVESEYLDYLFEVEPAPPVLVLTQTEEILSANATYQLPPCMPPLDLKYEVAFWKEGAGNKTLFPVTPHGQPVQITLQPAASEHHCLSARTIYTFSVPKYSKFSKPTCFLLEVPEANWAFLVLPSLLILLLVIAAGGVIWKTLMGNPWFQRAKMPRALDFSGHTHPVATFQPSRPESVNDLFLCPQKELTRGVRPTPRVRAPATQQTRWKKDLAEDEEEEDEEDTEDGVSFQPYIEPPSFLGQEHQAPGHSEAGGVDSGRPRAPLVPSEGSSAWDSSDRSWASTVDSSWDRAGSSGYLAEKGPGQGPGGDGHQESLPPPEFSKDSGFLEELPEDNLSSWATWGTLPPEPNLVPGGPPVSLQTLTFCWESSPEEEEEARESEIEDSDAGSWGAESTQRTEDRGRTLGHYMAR

Substance	ISRE Signaling of Transfected 293 Cells Following Class II Cytokine Stimulation (Fold Induction), ISRE-Luc./IL-28R, HuIL10 100 ng/ml (fold induction)	ISRE Signaling of Transfected 293 Cells Following Class II Cytokine Stimulation (Fold Induction), ISRE-Luc./IL-28R, Zcyto10 125 ng/ml (fold induction)
huIL10 (from UniProt P22301 19-178) (ligand)	0.5	
zcyto10 (from UniProt Q9NYY1 25-176) (ligand)		1
